Data published in PMC4930773, “Cataract-causing mutation S228P promotes βB1-crystallin aggregation and degradation by separating two interacting loops in C-terminal domain” (Protein & Cell, 2016).

Molecular target: T1, wild type βB1-crystallin (human, UniProt P53674 1-252)
T1 construct: human βB1-crystallin (CRYBB1), cloned from a human lens cDNA library into pET28a; no cleavage of the tag is described; also called WT βB1; WT; source: E. coli BL21 (DE3), purified (Ni-NTA, Superdex 200 gel filtration); not shown: His tag, N-terminal, kept
T1 sequence (looked up): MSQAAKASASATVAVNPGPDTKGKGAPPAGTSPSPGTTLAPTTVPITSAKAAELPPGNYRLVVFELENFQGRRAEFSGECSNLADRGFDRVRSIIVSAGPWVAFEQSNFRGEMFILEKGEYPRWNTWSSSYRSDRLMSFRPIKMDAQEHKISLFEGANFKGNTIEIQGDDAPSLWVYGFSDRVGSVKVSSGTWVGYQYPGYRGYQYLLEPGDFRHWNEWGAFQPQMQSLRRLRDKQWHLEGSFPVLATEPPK
Assay: SEC; equal molar homomers mixed and incubated at 37°C, aggregates removed by centrifugation; Superdex 200, buffer A (20 mmol/L sodium phosphate, 150 mmol/L NaCl, 1 mmol/L EDTA, 1 mmol/L DTT, pH 7.0), 30 µmol/L protein; SDS-PAGE of soluble and insoluble fractions alongside
Conditions: both partners purified

binding result: binds
B1: βA3-crystallin (natural protein, human, UniProt P05813 1-215, looked up)
chain: METQAEQQELETLPTTKMAQTNPTPGSLGPWKITIYDQENFQGKRMEFTSSCPNVSERSFDNVRSLKVESGAWIGYEHTSFCGQQFILERGEYPRWDAWSGSNAYHIERLMSFRPICSANHKESKMTIFEKENFIGRQWEISDDYPSLQAMGWFNNEVGSMKIQSGAWVCYQYPGYRGYQYILECDHHGGDYKHWREWGSHAQTSQIQSIRRIQQ
notes: source: E. coli BL21 (DE3), purified (Ni-NTA, Superdex 200 gel filtration)
